{
  "source": "patent US20140087995A1",
  "about": "(published 2014)",
  "binders": {"B1": {"name": "N^ε1-[2-[2-[2-[[2-[2-[2-[[(4S)-4-carboxy-4-(19-carboxynonadecanoylamino)butanoyl]amino]ethoxy]ethoxy]acetyl]amino]ethoxy]ethoxy]acetyl]-[Arg17,Pro21,Pro27,Pro31 … (peptide)", "peptide": "K([AEEA-AEEA-γGlu-C20 diacid])CNTATCATQRLANFLRHSSPNFGAIPSSTPVGSNTY-NH2", "modifications": "disulfide 2-7; N-terminus assumed", "SMILES": "CC[C@H](C)[C@H](NC(=O)[C@H](C)NC(=O)CNC(=O)[C@H](Cc1ccccc1)NC(=O)[C@H](CC(N)=O)NC(=O)[C@@H]1CCCN1C(=O)[C@H](CO)NC(=O)[C@H](CO)NC(=O)[C@H](Cc1c[nH]cn1)NC(=O)[C@H](CCCNC(=N)N)NC(=O)[C@H](CC(C)C)NC(=O)[C@H](Cc1ccccc1)NC(=O)[C@H](CC(N)=O)NC(=O)[C@H](C)NC(=O)[C@H](CC(C)C)NC(=O)[C@H](CCCNC(=N)N)NC(=O)[C@H](CCC(N)=O)NC(=O)[C@@H](NC(=O)[C@H](C)NC(=O)[C@@H]1CSSC[C@H](NC(=O)[C@@H](N)CCCCNC(=O)COCCOCCNC(=O)COCCOCCNC(=O)CC[C@H](NC(=O)CCCCCCCCCCCCCCCCCCC(=O)O)C(=O)O)C(=O)N[C@@H](CC(N)=O)C(=O)N[C@@H]([C@@H](C)O)C(=O)N[C@@H](C)C(=O)N[C@@H]([C@@H](C)O)C(=O)N1)[C@@H](C)O)C(=O)N1CCC[C@H]1C(=O)N[C@@H](CO)C(=O)N[C@@H](CO)C(=O)N[C@H](C(=O)N1CCC[C@H]1C(=O)N[C@H](C(=O)NCC(=O)N[C@@H](CO)C(=O)N[C@@H](CC(N)=O)C(=O)N[C@H](C(=O)N[C@@H](Cc1ccc(O)cc1)C(N)=O)[C@@H](C)O)C(C)C)[C@@H](C)O", "notes": "also called compound 96"}, "B2": {"name": "N^ε1-[2-[2-[2-[[(4S)-4-carboxy-4-(19-carboxynonadecanoylamino)butanoyl]amino]ethoxy]ethoxy]acetyl]-[Ala14,Arg17,Pro21,Pro27,Pro31]-h-amylin (peptide)", "peptide": "K([AEEA-γGlu-C20 diacid])CNTATCATQRLAAFLRHSSPNFGAIPSSTPVGSNTY-NH2", "modifications": "disulfide 2-7; N-terminus assumed", "SMILES": "CC[C@H](C)[C@H](NC(=O)[C@H](C)NC(=O)CNC(=O)[C@H](Cc1ccccc1)NC(=O)[C@H](CC(N)=O)NC(=O)[C@@H]1CCCN1C(=O)[C@H](CO)NC(=O)[C@H](CO)NC(=O)[C@H](Cc1c[nH]cn1)NC(=O)[C@H](CCCNC(=N)N)NC(=O)[C@H](CC(C)C)NC(=O)[C@H](Cc1ccccc1)NC(=O)[C@H](C)NC(=O)[C@H](C)NC(=O)[C@H](CC(C)C)NC(=O)[C@H](CCCNC(=N)N)NC(=O)[C@H](CCC(N)=O)NC(=O)[C@@H](NC(=O)[C@H](C)NC(=O)[C@@H]1CSSC[C@H](NC(=O)[C@@H](N)CCCCNC(=O)COCCOCCNC(=O)CC[C@H](NC(=O)CCCCCCCCCCCCCCCCCCC(=O)O)C(=O)O)C(=O)N[C@@H](CC(N)=O)C(=O)N[C@@H]([C@@H](C)O)C(=O)N[C@@H](C)C(=O)N[C@@H]([C@@H](C)O)C(=O)N1)[C@@H](C)O)C(=O)N1CCC[C@H]1C(=O)N[C@@H](CO)C(=O)N[C@@H](CO)C(=O)N[C@H](C(=O)N1CCC[C@H]1C(=O)N[C@H](C(=O)NCC(=O)N[C@@H](CO)C(=O)N[C@@H](CC(N)=O)C(=O)N[C@H](C(=O)N[C@@H](Cc1ccc(O)cc1)C(N)=O)[C@@H](C)O)C(C)C)[C@@H](C)O", "notes": "also called compound 72"}, "B3": {"name": "N^ε1-[2-[2-[2-[[(4S)-4-carboxy-4-(19-carboxynonadecanoylamino)butanoyl]amino]ethoxy]ethoxy]acetyl]-[Arg14,Arg17,Pro21,Pro27,Pro31]-h-amylin (peptide)", "peptide": "K([AEEA-γGlu-C20 diacid])CNTATCATQRLARFLRHSSPNFGAIPSSTPVGSNTY-NH2", "modifications": "disulfide 2-7; N-terminus assumed", "SMILES": "CC[C@H](C)[C@H](NC(=O)[C@H](C)NC(=O)CNC(=O)[C@H](Cc1ccccc1)NC(=O)[C@H](CC(N)=O)NC(=O)[C@@H]1CCCN1C(=O)[C@H](CO)NC(=O)[C@H](CO)NC(=O)[C@H](Cc1c[nH]cn1)NC(=O)[C@H](CCCNC(=N)N)NC(=O)[C@H](CC(C)C)NC(=O)[C@H](Cc1ccccc1)NC(=O)[C@H](CCCNC(=N)N)NC(=O)[C@H](C)NC(=O)[C@H](CC(C)C)NC(=O)[C@H](CCCNC(=N)N)NC(=O)[C@H](CCC(N)=O)NC(=O)[C@@H](NC(=O)[C@H](C)NC(=O)[C@@H]1CSSC[C@H](NC(=O)[C@@H](N)CCCCNC(=O)COCCOCCNC(=O)CC[C@H](NC(=O)CCCCCCCCCCCCCCCCCCC(=O)O)C(=O)O)C(=O)N[C@@H](CC(N)=O)C(=O)N[C@@H]([C@@H](C)O)C(=O)N[C@@H](C)C(=O)N[C@@H]([C@@H](C)O)C(=O)N1)[C@@H](C)O)C(=O)N1CCC[C@H]1C(=O)N[C@@H](CO)C(=O)N[C@@H](CO)C(=O)N[C@H](C(=O)N1CCC[C@H]1C(=O)N[C@H](C(=O)NCC(=O)N[C@@H](CO)C(=O)N[C@@H](CC(N)=O)C(=O)N[C@H](C(=O)N[C@@H](Cc1ccc(O)cc1)C(N)=O)[C@@H](C)O)C(C)C)[C@@H](C)O", "notes": "also called compound 64"}, "B4": {"name": "N^ε1-[2-[2-[2-[[(4S)-4-carboxy-4-(19-carboxynonadecanoylamino)butanoyl]amino]ethoxy]ethoxy]acetyl]-[Arg17,Pro21,Pro27,Arg34]-h-amylin (peptide)", "peptide": "K([AEEA-γGlu-C20 diacid])CNTATCATQRLANFLRHSSPNFGAIPSSTNVGRNTY-NH2", "modifications": "disulfide 2-7; N-terminus assumed", "SMILES": "CC[C@H](C)[C@H](NC(=O)[C@H](C)NC(=O)CNC(=O)[C@H](Cc1ccccc1)NC(=O)[C@H](CC(N)=O)NC(=O)[C@@H]1CCCN1C(=O)[C@H](CO)NC(=O)[C@H](CO)NC(=O)[C@H](Cc1c[nH]cn1)NC(=O)[C@H](CCCNC(=N)N)NC(=O)[C@H](CC(C)C)NC(=O)[C@H](Cc1ccccc1)NC(=O)[C@H](CC(N)=O)NC(=O)[C@H](C)NC(=O)[C@H](CC(C)C)NC(=O)[C@H](CCCNC(=N)N)NC(=O)[C@H](CCC(N)=O)NC(=O)[C@@H](NC(=O)[C@H](C)NC(=O)[C@@H]1CSSC[C@H](NC(=O)[C@@H](N)CCCCNC(=O)COCCOCCNC(=O)CC[C@H](NC(=O)CCCCCCCCCCCCCCCCCCC(=O)O)C(=O)O)C(=O)N[C@@H](CC(N)=O)C(=O)N[C@@H]([C@@H](C)O)C(=O)N[C@@H](C)C(=O)N[C@@H]([C@@H](C)O)C(=O)N1)[C@@H](C)O)C(=O)N1CCC[C@H]1C(=O)N[C@@H](CO)C(=O)N[C@@H](CO)C(=O)N[C@H](C(=O)N[C@@H](CC(N)=O)C(=O)N[C@H](C(=O)NCC(=O)N[C@@H](CCCNC(=N)N)C(=O)N[C@@H](CC(N)=O)C(=O)N[C@H](C(=O)N[C@@H](Cc1ccc(O)cc1)C(N)=O)[C@@H](C)O)C(C)C)[C@@H](C)O", "notes": "also called compound 78"}, "B5": {"name": "N^ε1-[2-[2-[2-[[2-[2-[2-[[(4S)-4-carboxy-4-(19-carboxynonadecanoylamino)butanoyl]amino]ethoxy]ethoxy]acetyl]amino]ethoxy]ethoxy]acetyl]-[Arg17,Pro21,Pro27,Pro34 … (peptide)", "peptide": "K([AEEA-AEEA-γGlu-C20 diacid])CNTATCATQRLANFLRHSSPNFGAIPSSTNVGPNTY-NH2", "modifications": "disulfide 2-7; N-terminus assumed", "SMILES": "CC[C@H](C)[C@H](NC(=O)[C@H](C)NC(=O)CNC(=O)[C@H](Cc1ccccc1)NC(=O)[C@H](CC(N)=O)NC(=O)[C@@H]1CCCN1C(=O)[C@H](CO)NC(=O)[C@H](CO)NC(=O)[C@H](Cc1c[nH]cn1)NC(=O)[C@H](CCCNC(=N)N)NC(=O)[C@H](CC(C)C)NC(=O)[C@H](Cc1ccccc1)NC(=O)[C@H](CC(N)=O)NC(=O)[C@H](C)NC(=O)[C@H](CC(C)C)NC(=O)[C@H](CCCNC(=N)N)NC(=O)[C@H](CCC(N)=O)NC(=O)[C@@H](NC(=O)[C@H](C)NC(=O)[C@@H]1CSSC[C@H](NC(=O)[C@@H](N)CCCCNC(=O)COCCOCCNC(=O)COCCOCCNC(=O)CC[C@H](NC(=O)CCCCCCCCCCCCCCCCCCC(=O)O)C(=O)O)C(=O)N[C@@H](CC(N)=O)C(=O)N[C@@H]([C@@H](C)O)C(=O)N[C@@H](C)C(=O)N[C@@H]([C@@H](C)O)C(=O)N1)[C@@H](C)O)C(=O)N1CCC[C@H]1C(=O)N[C@@H](CO)C(=O)N[C@@H](CO)C(=O)N[C@H](C(=O)N[C@@H](CC(N)=O)C(=O)N[C@H](C(=O)NCC(=O)N1CCC[C@H]1C(=O)N[C@@H](CC(N)=O)C(=O)N[C@H](C(=O)N[C@@H](Cc1ccc(O)cc1)C(N)=O)[C@@H](C)O)C(C)C)[C@@H](C)O", "notes": "also called compound 98"}, "B6": {"name": "N^ε1-[2-[2-[2-[[(4S)-4-carboxy-4-(19-carboxynonadecanoylamino)butanoyl]amino]ethoxy]ethoxy]acetyl]-[Arg14,Arg17,Pro21,Pro27]-h-amylin (peptide)", "peptide": "K([AEEA-γGlu-C20 diacid])CNTATCATQRLARFLRHSSPNFGAIPSSTNVGSNTY-NH2", "modifications": "disulfide 2-7; N-terminus assumed", "SMILES": "CC[C@H](C)[C@H](NC(=O)[C@H](C)NC(=O)CNC(=O)[C@H](Cc1ccccc1)NC(=O)[C@H](CC(N)=O)NC(=O)[C@@H]1CCCN1C(=O)[C@H](CO)NC(=O)[C@H](CO)NC(=O)[C@H](Cc1c[nH]cn1)NC(=O)[C@H](CCCNC(=N)N)NC(=O)[C@H](CC(C)C)NC(=O)[C@H](Cc1ccccc1)NC(=O)[C@H](CCCNC(=N)N)NC(=O)[C@H](C)NC(=O)[C@H](CC(C)C)NC(=O)[C@H](CCCNC(=N)N)NC(=O)[C@H](CCC(N)=O)NC(=O)[C@@H](NC(=O)[C@H](C)NC(=O)[C@@H]1CSSC[C@H](NC(=O)[C@@H](N)CCCCNC(=O)COCCOCCNC(=O)CC[C@H](NC(=O)CCCCCCCCCCCCCCCCCCC(=O)O)C(=O)O)C(=O)N[C@@H](CC(N)=O)C(=O)N[C@@H]([C@@H](C)O)C(=O)N[C@@H](C)C(=O)N[C@@H]([C@@H](C)O)C(=O)N1)[C@@H](C)O)C(=O)N1CCC[C@H]1C(=O)N[C@@H](CO)C(=O)N[C@@H](CO)C(=O)N[C@H](C(=O)N[C@@H](CC(N)=O)C(=O)N[C@H](C(=O)NCC(=O)N[C@@H](CO)C(=O)N[C@@H](CC(N)=O)C(=O)N[C@H](C(=O)N[C@@H](Cc1ccc(O)cc1)C(N)=O)[C@@H](C)O)C(C)C)[C@@H](C)O", "notes": "also called compound 82"}},
  "note": "Numbered stars: 1 amine (or outer) side, 2 acyl side, 3 side chain; on linkers, the order of the positions; unused ones are H or OH. Bridge positions count the residues as written; N and C are the ends. Side chains are listed from the residue outwards. Ends that are not written are not given here. * marks the point of attachment. C20 diacid = O=C(O)CCCCCCCCCCCCCCCCCCC(=O)*; γGlu = O=C(O)[C@H](CCC(=O)[*:2])N[*:1]; AEEA = NCCOCCOCC(=O)O",
  "data": [
    {"molecular_target": "T1, human calcitonin receptor (human, UniProt P30988 25-474)", "T1 sequence (looked up)": "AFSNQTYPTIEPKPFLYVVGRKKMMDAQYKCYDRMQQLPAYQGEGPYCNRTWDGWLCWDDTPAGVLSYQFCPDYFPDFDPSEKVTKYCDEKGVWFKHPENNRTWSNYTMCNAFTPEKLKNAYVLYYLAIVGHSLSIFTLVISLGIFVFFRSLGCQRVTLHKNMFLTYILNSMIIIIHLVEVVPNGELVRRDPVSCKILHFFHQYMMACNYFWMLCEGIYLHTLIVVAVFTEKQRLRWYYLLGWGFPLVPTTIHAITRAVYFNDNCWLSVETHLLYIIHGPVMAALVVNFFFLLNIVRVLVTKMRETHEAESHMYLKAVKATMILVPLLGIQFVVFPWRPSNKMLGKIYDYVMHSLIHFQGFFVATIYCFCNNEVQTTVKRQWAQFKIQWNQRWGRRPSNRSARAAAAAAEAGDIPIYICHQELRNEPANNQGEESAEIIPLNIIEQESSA", "test": "cell-based or functional assay", "units": {"hCTR funct. EC50": "nM"}, "values": [
      {"binder": "B1", "hCTR funct. EC50": 3.8},
      {"binder": "B2", "hCTR funct. EC50": 4.76},
      {"binder": "B3", "hCTR funct. EC50": 22.9},
      {"binder": "B4", "hCTR funct. EC50": 8.17},
      {"binder": "B5", "hCTR funct. EC50": 1.63},
      {"binder": "B6", "hCTR funct. EC50": 12.7}
    ]}
  ]
}
